Data: patent US12692302B2, “Uses of IL-13 antagonists for treating atopic dermatitis” (Genentech, Inc., priority 2016, dated 2026)

How the values were obtained:
[1] = test system: atopic dermatitis patients; experiment: Atopic dermatitis longitudinal PK-PD model of lebrikizumab (EASI score) and simulated dosing regimens; set-up: species or system human; settings: PK-PD model fitted to EASI scores up to 12 weeks from Clinical Study I
From the text: In FIG. 5, R(t) is the EASI score; Kin0 is the baseline disease progression rate constant; kin is the disease progression rate constant with lebrikizumab and including the placebo/TCS effect; Edrug is the lebrikizumab drug effect on disease progression inhibition; Econ is the placebo/TCS effect (constant overtime); Emax is the maximum lebrikizumab drug effect on disease progression inhibition; EC50 is the lebrikizumab concentration that leads to 50% of Emax; kout is the tissue repair rate constant; R(t=0) is the baseline EASI score; IIV is the inter-individual variability; ωkout is the inter-individual variability for kout; ωEcon is the inter-individual variability for Econ; ρKoutXEcon is the correlation between kout and Econ; and σ is the residual error.
The model was used to simulate the predicted efficacy, e.g., EASI-75 score, of various alternative dosing regimens, for example, including but not limited to, various loading doses followed subsequently by various maintenance doses, e.g., flat doses of lebrikizumab administered at regular time intervals, or various lower flat doses or higher flat doses, or increased treatment intervals with lebrikizumab.
The model development began with raw pharmacokinetic and efficacy data that had been collected during the conduct of the Phase II Clinical Study I described above. […]

[2] = Clinical Study I: serum lebrikizumab pharmacokinetics; assay type: in vivo, human; settings: AD patients; for Mean Cmax, wk1 / Mean Cmin wk12 / Mean Cmin, wk4 / Mean Cmin, wk8: serum
Experimental: Pharmacokinetic parameters were also assessed as follows. Serum samples for analysis of lebrikizumab pharmacokinetics were obtained at Day 1 (pre-dose) and at Weeks 1, 4 (pre-dose), 6, 8 (pre-dose), 12, 16, and 20 for all dosing regimens. Serum lebrikizumab concentrations were summarized by treatment and visit using descriptive statistics for the patients that received one of the lebrikizumab treatment regimens.

In the case of “lebrikizumab: monoclonal humanized anti-IL-13 IgG4 antibody; heavy chain SEQ ID NO: 11, light chain SEQ ID NO: 12; formulated at 125 mg/mL in prefilled syringe”, the “EC50 (lebrikizumab concentration that leads to 50% of Emax), estimate” value [1] is reported as 8.08 µg/mL, the “Emax (maximum lebrikizumab drug effect on disease progression inhibition), estimate” value [1] is reported as 0.729 and the “t½ (elimination half-life)” value ([2]; 125 mg Q4W subcutaneous) is reported as 20.9 days. For the same substance, the “t½ (elimination half-life)” value ([2]; 125 mg SD subcutaneous) was 18.5 days, the “t½ (elimination half-life)” value ([2]; 250 mg SD subcutaneous) was 22.2 days and the half-life ([2]; across the dosing regimens) was 19 to 22 days. For the same substance, the “Mean Cmax, wk1” value ([2]; 125 mg Q4W subcutaneous) was 16100 ng/mL, the “Mean Cmin wk12” value ([2]; 125 mg Q4W subcutaneous) was 14400 ng/mL and the “Mean Cmin, wk4” value ([2]; 125 mg Q4W subcutaneous) was 9150 ng/mL. For the same substance, the “Mean Cmin, wk8” value ([2]; 125 mg Q4W subcutaneous) was 13600 ng/mL, the “Mean Cmax, wk1” value ([2]; 125 mg SD subcutaneous) was 17000 ng/mL and the “Mean Cmin wk12” value ([2]; 125 mg SD subcutaneous) was 2280 ng/mL. The “Mean Cmin, wk4” value ([2]; 125 mg SD subcutaneous) was 10200 ng/mL, the “Mean Cmin, wk8” value ([2]; 125 mg SD subcutaneous) was 4590 ng/mL and the “Mean Cmax, wk1” value ([2]; 250 mg SD subcutaneous) was 35600 ng/mL. For the same substance, the “Mean Cmin wk12” value ([2]; 250 mg SD subcutaneous) was 3770 ng/mL, the “Mean Cmin, wk4” value ([2]; 250 mg SD subcutaneous) was 21400 ng/mL and the “Mean Cmin, wk8” value ([2]; 250 mg SD subcutaneous) was 9530 ng/mL.
